Test results reported in paper PMC5698462, “Production of recombinant human procollagen type I C-terminal propeptide and establishment of a sandwich ELISA for quantification” (Scientific Reports, 2017).

B1: Procollagen type I carboxy-terminal propeptide α2 chain (PICPα2), residues 1120–1366, with N-terminal c-myc tag (domain or fragment, human, UniProt P08123 1120-1366, looked up)
chain: DQPRSAPSLRPKDYEVDATLKSLNNQIETLLTPEGSRKNPARTCRDLRLSHPEWSSGYYWIDPNQGCTMDAIKVYCDFSTGETCIRAQPENIPAKNWYRSSKDKKHVWLGETINAGSQFEYNVEGVTSKEMATQLAFMRLLANYASQNITYHCKNSIAYMDEETGNLKKAVILQGSNDVELVAEGNSRFTYTVLVDGCSKKTNEWGKTIIEYKTNKPSRLPFLDIAPLDIGGADQEFFVDIGPVCFK
notes: C-terminal propeptide of the human type I procollagen α2 chain, residues 1120–1366 (residue numbers of type I procollagen); a restriction site was removed by a silent mutation; Cloned into pSecTag2A (AscI/ApaI) for secretion; also called c-myc-tagged PICPα2; source: HEK293F, transiently co-transfected with the PICPα1 plasmid (PICPα1:PICPα2 2:1 molar ratio), secreted; co-purified from culture …
B3: Procollagen type I carboxy-terminal propeptide α1 chain (PICPα1), residues 1218–1464, with N-terminal 8× His tag (domain or fragment, human, UniProt P02452 1218-1464, looked up)
chain: ADDANVVRDRDLEVDTTLKSLSQQIENIRSPEGSRKNPARTCRDLKMCHSDWKSGEYWIDPNQGCNLDAIKVFCNMETGETCVYPTQPSVAQKNWYISKNPKDKRHVWFGESMTDGFQFEYGGQGSDPADVAIQLTFLRLMSTEASQNITYHCKNSVAYMDQQTGNLKKALLLQGSNEIEIRAEGNSRFTYSVTVDGCTSHTGAWGKTVIEYKTTKTSRLPIIDVAPLDVGAPDQEFGFDVGPVCFL
notes: C-terminal propeptide of the human type I procollagen α1 chain, residues 1218–1464 (residue numbers of type I procollagen); Cloned into pSecTag2A (AscI/ApaI) for secretion; Two copies of this chain stand with one PICPα2 chain in the disulfide-linked PICP heterotrimer; also called 8× His-tagged PICPα1; recombinant PICPα1 chain; source: HEK293F, transiently co-transfected with the PICPα2 plasmid at …

Tests used:
[1] = molecular target: B3; experiment: pull-down; Ni-NTA purification through the 8× His tag on PICPα1 from culture supernatant of HEK293F cells co-transfected with PICPα1 and PICPα2 plasmids (2:1); western blot with anti-His and anti-c-myc antibodies, non-reducing and reducing SDS-PAGE; conditions: partners not purified
[2] = molecular target: the molecule itself; experiment: SEC; Superdex 200 10/300 GL; purified PICP (2 mg/mL) in TBS (500 mM NaCl, 2.7 mM KCl, 12 mM Tris, pH 7.4); purified PIIICP in PBS pH 7.4; apparent molecular weight against standard markers
[3] = molecular target: B1; experiment: non-reducing and reducing SDS-PAGE (stain, western blot) and SDS-CGE; purified proteins run under non-reducing and reducing conditions; band intensity (ImageJ) and peak area (Agilent 2100 bioanalyzer, Protein 230 kit) quantified; disulfide-linked trimers; conditions: both partners purified

B1
binding result [1]: binds

B2: Procollagen type III C-terminal propeptide (PIIICP), homotrimer of PIIICPα1 (residues 1222–1466) with N-terminal 8× His tag (domain or fragment, human, UniProt P02461 1222-1466, looked up)
chain: DEPMDFKINTDEIMTSLKSVNGQIESLISPDGSRKNPARNCRDLKFCHPELKSGEYWVDPNQGCKLDAIKVFCNMETGETCISANPLNVPRKHWWTDSSAEKKHVWFGESMDGGFQFSYGNPELPEDVLDVHLAFLRLLSSRASQNITYHCKNSIAYMDQASGNVKKALKLMGSNEGEFKAEGNSKFTYTVLEDGCTKHTGEWSKTVFEYRTRKAVRLPIVDIAPYDIGGPDQEFGVDVGPVCFL
notes: C-terminal propeptide of the human type III procollagen α1 chain, residues 1222–1466; Mammalian secretion plasmid; also called 8× His-tagged PIIICPα1; recombinant PIIICP; source: HEK293F, transiently transfected, secreted; purified from culture supernatant (Ni-NTA); not shown: 8× His, N-terminal, kept
stoichiometry N [2]: 3

B3
stoichiometry N [3]: 2 PICPα1 chains per PICPα2 chain
